The target in one test is T1, IL-7R (Sino Biological) (UniProt P16871 21-239).
T1 sequence (looked up): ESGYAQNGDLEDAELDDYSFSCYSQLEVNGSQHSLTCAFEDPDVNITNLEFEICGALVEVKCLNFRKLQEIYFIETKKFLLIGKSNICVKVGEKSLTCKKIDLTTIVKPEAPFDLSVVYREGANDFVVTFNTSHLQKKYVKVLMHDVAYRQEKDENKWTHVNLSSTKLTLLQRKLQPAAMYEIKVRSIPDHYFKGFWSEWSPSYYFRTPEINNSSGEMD
Put plainly: Octet (BLI) off-rate, antibody captured on AHC sensors. How it is done:
(§1) All off-rate measurements were performed on an Octet Qk384 instrument (ForteBio), in 96-well microplates at 25° C. using anti-human IgG Fc capture (AHC, 18-5005) sensors with a shake speed of 1000 rpm. For off-rate determination, the antibodies/antibody fragments were loaded on the AHC sensors at 5 μg/mL. Following a short baseline in kinetics buffer (0.02% Tween20, 0.1% BSA, 0.05% sodium azide, 1X PBS). Offrate measurements were done for the following: human IL-2Rβ (AcroBiosystems), human IL-2Ry (Sino Biological), cynomolgus IL-2RP (Sino Biological), cynomolgus IL-2Rγ (expressed and purified in house using ExpiCHO expression system followed by Ni-NTA His-tag purification), mouse IL-2Rγ (Sino Biological), mouse IL-2Rβ (Sino Biological), human IL-2Rα (Sino Biological), IL-4R (Sino Biological), IL-7R (Sino Biological), IL-9R (R&D Systems) and IL-21R (Sino Biological). The following antibodies were used as positive controls to verify target binding and reagent quality: anti-human IL-9R (R&D Systems), anti-human IL-21R (R&D Systems), anti-human IL-7R (R&D Systems) and anti-human IL-4Ra (R&D Systems). The loaded sensors were then submerged in wells containing antigen at 100 nM concentration for association step. Dissociation was monitored in kinetics buffer. The capture surfaces were regenerated for 60 s. ForteBio data analysis software was used to fit the data to a 1:1 binding model to extract an association rate and dissociation rate.
(BLI is a label-free optical method that tracks binding on a fibre tip over time.)

For test [1], the target named is T2, human IL-2Rα (Sino Biological) (human, UniProt P01589 22-213, limits assumed).
T2 construct: Bought recombinant protein; also called IL2RA; CD25
T2 sequence: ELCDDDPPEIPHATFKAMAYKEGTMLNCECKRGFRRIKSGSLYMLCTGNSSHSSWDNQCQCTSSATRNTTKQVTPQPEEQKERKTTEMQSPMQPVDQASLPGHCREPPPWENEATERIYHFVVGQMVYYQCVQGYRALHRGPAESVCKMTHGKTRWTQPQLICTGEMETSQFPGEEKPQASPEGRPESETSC
The description is as above. The protocol:
as §1

The target in the next test is IL-21R (Sino Biological) (UniProt Q9HBE5 20-232). Described as above. How it is done:
as §1

For another test, the target named is T3, IL-9R (R&D Systems) (UniProt Q01113 41-270, limits assumed).
T3 sequence (looked up): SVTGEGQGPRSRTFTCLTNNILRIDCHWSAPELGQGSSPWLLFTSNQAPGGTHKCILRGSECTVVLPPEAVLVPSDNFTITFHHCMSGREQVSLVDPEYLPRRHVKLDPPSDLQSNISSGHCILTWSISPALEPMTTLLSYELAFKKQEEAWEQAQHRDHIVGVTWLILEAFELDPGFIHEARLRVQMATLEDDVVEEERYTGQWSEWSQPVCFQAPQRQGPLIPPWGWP
The test is described as above. The protocol: as §1

The next test addresses T4, IL-4R (Sino Biological) (UniProt P24394 26-232).
T4 construct: also called IL-4Ra
T4 sequence (looked up): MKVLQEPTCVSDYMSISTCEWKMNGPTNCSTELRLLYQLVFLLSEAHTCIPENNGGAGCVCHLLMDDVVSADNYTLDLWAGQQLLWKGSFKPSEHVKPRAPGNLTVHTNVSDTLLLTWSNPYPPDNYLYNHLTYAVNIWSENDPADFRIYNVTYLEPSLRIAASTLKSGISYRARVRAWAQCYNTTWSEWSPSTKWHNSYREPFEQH
Described as above. How it is done: as §1

A further test addresses T5, IL2RB, Cyno (Macaca fascicularis, UniProt Q38J85).
T5 construct: Same protein as m18, but here as recombinant protein in solution, not on CHO cells; also called cynomolgus IL-2RB (Sino Biological)
T5 sequence (receptor chain, looked up): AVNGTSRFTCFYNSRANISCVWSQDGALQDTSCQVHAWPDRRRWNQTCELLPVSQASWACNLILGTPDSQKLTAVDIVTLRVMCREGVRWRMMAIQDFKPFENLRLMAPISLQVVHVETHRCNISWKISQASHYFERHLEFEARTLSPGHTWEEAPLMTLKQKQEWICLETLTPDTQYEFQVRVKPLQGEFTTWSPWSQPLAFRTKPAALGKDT
Put plainly: biolayer interferometry (Octet Qk384), antibody captured on anti-human Fc (AHC) sensors, antigen 7.8-500 nM in solution, 1:1 fit, KD = kd/ka. How it is done:
All kinetics measurement experiments were performed on a ForteBio Octet Qk384 instrument using anti-human Fc capture (AHC, 18-5005) sensors. The bispecific heavy chain-only antibodies and antigens were diluted to final concentrations in Kinetics buffer (0.02% Tween20, 0.1% BSA, 0.05% sodium azide, 1X PBS). Kinetics measurements were against the following antigens: human IL-2RB (AcroBiosystems), human TL-2RG (AcroBiosystems), cynomolgus IL-2RB (Sino Biological), cynomolgus IL-2RG (expressed and purified in house using ExpiCHO expression system followed by Ni-NTA his-tag purification). The antibodies were loaded on the AHC sensors at 5 μg/mL for maximum loading. Following a short baseline in Kinetics buffer, the sensors were exposed to a series of analyte concentrations (7.8 nM to 500 nM) for association step and background subtraction was used to correct for sensor drifting. Dissociation was monitored in Kinetics buffer. The capture surfaces were regenerated for 60s. All experiments were performed with shaking at 1000 rpm. ForteBio's data analysis software was used to fit the data to a 1:1 binding model to extract an association rate and dissociation rate. The KD was calculated using the ratio kd/ka.

The values that follow come from US20260102487A1 (Amgen, published 2026).

IL-21R (Sino Biological), sequence (Q9HBE5 20-232 limits assumed): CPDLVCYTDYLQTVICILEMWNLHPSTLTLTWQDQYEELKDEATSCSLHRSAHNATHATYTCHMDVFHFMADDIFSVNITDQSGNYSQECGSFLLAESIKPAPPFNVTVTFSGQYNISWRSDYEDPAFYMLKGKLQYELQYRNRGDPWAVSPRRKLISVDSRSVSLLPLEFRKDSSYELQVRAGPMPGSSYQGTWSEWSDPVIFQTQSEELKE

B1: BsAb-2 (IL2RB_F09G**IL2RG_F16B) (bispecific antibody, human IgG4, V domains shown)
V domain 1: QVQLQESGPGLVKSSETLSLTCTVSGGSISSSDWWSWVRQPPGKGLEWIGEIDHSGSTNYNPSLMSRVTISVDKSKNQFSLKLSSVTAADTAVYFCARGSWELTDAFDIRGQGTLVTVSS
V domain 2: QVQLVESGGGLVKPGGSLRLSCAASGFTFSDYYMSWIRQAPGKGLEWVSYISSSGSTIYYADSVKGRFTISRDNAKNSLYLQMNSLRAEDTAVYYCARGDAVSITGDYRGQGTLVTVSS
notes: Heavy chain-only bispecific on silenced, stabilised human IgG4 Fc, knobs-into-holes, no light chains; not shown: C-terminal His-tag on the knob chain
Turning to B1, the binding result (with IL-7R (Sino Biological); in test [1]; with IL-21R (Sino Biological); in the test with IL-9R (R&D Systems); with IL-4R (Sino Biological)) was “no binding (tested: antigen at 100 nM)” throughout. Moreover, in the test with IL2RB, Cyno, binding was characterised by a dissociation constant (Kd) of 16.7 nM.

B2: BsAb-4 (IL2RB_F09G**IL2RG_F18A) (bispecific antibody, human IgG4, V domains shown)
V domain 1: QVQLQESGPGLVKSSETLSLTCTVSGGSISSSDWWSWVRQPPGKGLEWIGEIDHSGSTNYNPSLMSRVTISVDKSKNQFSLKLSSVTAADTAVYFCARGSWELTDAFDIRGQGTLVTVSS
V domain 2: QVQLVESGGDLVKPGGSLRLSCAASGFTFSDYYMSWLRQAPGKELEWVSHISSSGTTTYYADSVEGRFTITRDNAKNSLYLQMNSLRAEDTAVYYCARGAAVAPGFDSRGQGTLVTVSS
notes: as for B1
With B2, the binding result (in the test with IL-7R (Sino Biological); in test [1]; with IL-21R (Sino Biological); with IL-9R (R&D Systems); in the test with IL-4R (Sino Biological)) was “no binding (tested: antigen at 100 nM)” throughout. The molecule also displayed a Kd in the test with IL2RB, Cyno of 17.3 nM.

B3: BsAb-6 (IL2RB_F18E**IL2RG_F16A) (bispecific antibody, human IgG4, V domains shown)
V domain 1: QVQLVESGGGVVQPGRSLRLSCAASGFTFSSYGMHWVRQAPGKEREWVAVISYDGSNKYYTDSVKGRFTISRDNSKNTLYLEMNSLRAEDTAVYYCARDLDYDVLTGDPVGGFDIWGQGTLVTVSS
V domain 2: QVQLVESGGGLVKPGGSLRLSCAASGFTFSDYYMSWIRQAPGKGLEWVSSISSSGDTIYYADSVQGRFTLSRDNAENSLFLQMNSLRAEDTAVYYCARGDAVSITGDYRGQGTLVTVSS
notes: as for B1
Regarding B3, the binding result (in the test with IL-7R (Sino Biological); in test [1]; with IL-21R (Sino Biological); with IL-9R (R&D Systems); with IL-4R (Sino Biological)) was “no binding (tested: antigen at 100 nM)” each time. Moreover, in the test with IL2RB, Cyno, the Kd amounted to 55.2 nM.

B4: BsAb-1 (IL2RB_F09C**IL2RG_F16A) (bispecific antibody, human IgG4, V domains shown)
V domain 1: QVQLQESGPGLVKPSGTLSLTCAVSGGSISSSDWWSWVRQPPGKGLEWIGEIDHSGSTNYNPSLMSRVTISVDKSKNQFSLKLSSVTAADTAVYFCGRGSWELSDAFDIRGQGTLVTVSS
V domain 2: QVQLVESGGGLVKPGGSLRLSCAASGFTFSDYYMSWIRQAPGKGLEWVSSISSSGDTIYYADSVQGRFTLSRDNAENSLFLQMNSLRAEDTAVYYCARGDAVSITGDYRGQGTLVTVSS
notes: as for B1
As for B4, the binding result (with IL-7R (Sino Biological); in test [1]; with IL-21R (Sino Biological); with IL-9R (R&D Systems); in the test with IL-4R (Sino Biological)) was “no binding (tested: antigen at 100 nM)” in each case. Further, in the test with IL2RB, Cyno, binding was characterised by a dissociation constant (Kd) of 10.7 nM.

B5: BsAb-3 (IL2RB_F09G**IL2RG_F16C) (bispecific antibody, human IgG4, V domains shown)
V domain 1: QVQLQESGPGLVKSSETLSLTCTVSGGSISSSDWWSWVRQPPGKGLEWIGEIDHSGSTNYNPSLMSRVTISVDKSKNQFSLKLSSVTAADTAVYFCARGSWELTDAFDIRGQGTLVTVSS
V domain 2: QVQLVESGGGLVKPGGSLRLSCAASGFTFNDYYMSWIRQAPGKGLEWVSHISSSGSTIYYADSVKGRFTVSRDNANNSLYLQMHSLRAEDTAVYYCARGDAVSITGDYRGQGTLVTVSS
notes: as for B1
In the case of B5, the binding result (with IL-7R (Sino Biological); in test [1]; in the test with IL-21R (Sino Biological); in the test with IL-9R (R&D Systems); with IL-4R (Sino Biological)) was “no binding (tested: antigen at 100 nM)” each time. The Kd with IL2RB, Cyno worked out at 16 nM.

B6: BsAb-5 (IL2RB_F09K**IL2RG_F16B) (bispecific antibody, human IgG4, V domains shown)
V domain 1: QVQLQESSPGLVKPSETLSLTCTVSGGSISSSNWWSWVRQPPGKGLEWIGEISHSGSTNYNPSLKSRVTISVDKSKNQFSLRLSSVTAADTAVYFCGRGSWELTDAFDIRGQGTLVTVSS
V domain 2: QVQLVESGGGLVKPGGSLRLSCAASGFTFSDYYMSWIRQAPGKGLEWVSYISSSGSTIYYADSVKGRFTISRDNAKNSLYLQMNSLRAEDTAVYYCARGDAVSITGDYRGQGTLVTVSS
notes: as for B1
As for B6, the binding result (with IL-7R (Sino Biological); in test [1]; in the test with IL-21R (Sino Biological); with IL-9R (R&D Systems); with IL-4R (Sino Biological)) was “no binding (tested: antigen at 100 nM)” in each case. The Kd in the test with IL2RB, Cyno stood at 16.5 nM.

For orientation: Kd means the free concentration of one partner at which half of the binding sites on the other are occupied at equilibrium, for simple one-to-one binding. A high value points to lower affinity.
